Earlier results on one substance are cited in PMC3245798.

This data set addresses SLAM (Homo sapiens) (UniProt Q13291). The note with it: cited from earlier work.
Chain of UniProt Q13291 (Q13291 21-335): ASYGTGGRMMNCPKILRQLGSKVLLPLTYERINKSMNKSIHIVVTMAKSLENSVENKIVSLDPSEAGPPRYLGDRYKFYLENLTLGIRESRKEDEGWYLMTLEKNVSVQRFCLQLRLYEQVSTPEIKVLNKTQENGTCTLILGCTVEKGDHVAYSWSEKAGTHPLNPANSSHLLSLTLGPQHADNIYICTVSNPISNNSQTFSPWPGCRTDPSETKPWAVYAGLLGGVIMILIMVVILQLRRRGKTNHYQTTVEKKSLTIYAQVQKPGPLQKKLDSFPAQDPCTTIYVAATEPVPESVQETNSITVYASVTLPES

The Kd is a measure of binding affinity in units of concentration. For the substance “measles virus hemagglutinin (H) (from UniProt P08362)”, the Kd was 80 nM.
